Experimental data reported in PMC9168836, “Clamping of DNA shuts the condensin neck gate” (Proceedings of the National Academy of Sciences of the …, 2021).

Assays:
[1] = biological target: Smc2;Smc4;Brn1 (kleisin);Ycs4 (HAWK) (Saccharomyces cerevisiae;Saccharomyces …, UniProt P38989;Q12267;P38170;Q06156 1-1170;1-1418;1-754;1-1176, |||); experiment: cryo-EM structure; condensin tetramer; ADP.BeF3, Mg2+; clamped head module Form I, 2.95 A; 30 mM Tris/HCl pH 7.5, 60 mM NaCl, 1 mM TCEP, 2 mM MgCl2, 5 mM ADP, 1 mM BeSO4, 10 mM NaF; 30 min at room temperature; 1-2 uM 80-bp DNA or 100 nM circular DNA; conditions: protein: recombinant;recombinant;recombinant;recombinant; copies: 1;1;1;1; blunt
[2] = biological target: Ycg1 (HAWK);Brn1 (kleisin) (Saccharomyces cerevisiae;Saccharomyces …, UniProt Q06680;P38170 1-1035;1-754, |); experiment: cryo-EM structure; Ycg1-Brn1 part of the condensin pentamer; ADP.BeF3, Mg2+ in sample; 3.2 A; 30 mM Tris/HCl pH 7.5, 60 mM NaCl, 1 mM TCEP, 2 mM MgCl2, 5 mM ADP, 1 mM BeSO4, 10 mM NaF; 30 min at room temperature; 1-2 uM 80-bp DNA or 100 nM circular DNA; conditions: protein: recombinant;recombinant; tags: see P1;see P1; copies: 1;1; blunt
Ycg1 (HAWK);Brn1 (kleisin), sequence (Q06680 whole entry, chain 1 of 2): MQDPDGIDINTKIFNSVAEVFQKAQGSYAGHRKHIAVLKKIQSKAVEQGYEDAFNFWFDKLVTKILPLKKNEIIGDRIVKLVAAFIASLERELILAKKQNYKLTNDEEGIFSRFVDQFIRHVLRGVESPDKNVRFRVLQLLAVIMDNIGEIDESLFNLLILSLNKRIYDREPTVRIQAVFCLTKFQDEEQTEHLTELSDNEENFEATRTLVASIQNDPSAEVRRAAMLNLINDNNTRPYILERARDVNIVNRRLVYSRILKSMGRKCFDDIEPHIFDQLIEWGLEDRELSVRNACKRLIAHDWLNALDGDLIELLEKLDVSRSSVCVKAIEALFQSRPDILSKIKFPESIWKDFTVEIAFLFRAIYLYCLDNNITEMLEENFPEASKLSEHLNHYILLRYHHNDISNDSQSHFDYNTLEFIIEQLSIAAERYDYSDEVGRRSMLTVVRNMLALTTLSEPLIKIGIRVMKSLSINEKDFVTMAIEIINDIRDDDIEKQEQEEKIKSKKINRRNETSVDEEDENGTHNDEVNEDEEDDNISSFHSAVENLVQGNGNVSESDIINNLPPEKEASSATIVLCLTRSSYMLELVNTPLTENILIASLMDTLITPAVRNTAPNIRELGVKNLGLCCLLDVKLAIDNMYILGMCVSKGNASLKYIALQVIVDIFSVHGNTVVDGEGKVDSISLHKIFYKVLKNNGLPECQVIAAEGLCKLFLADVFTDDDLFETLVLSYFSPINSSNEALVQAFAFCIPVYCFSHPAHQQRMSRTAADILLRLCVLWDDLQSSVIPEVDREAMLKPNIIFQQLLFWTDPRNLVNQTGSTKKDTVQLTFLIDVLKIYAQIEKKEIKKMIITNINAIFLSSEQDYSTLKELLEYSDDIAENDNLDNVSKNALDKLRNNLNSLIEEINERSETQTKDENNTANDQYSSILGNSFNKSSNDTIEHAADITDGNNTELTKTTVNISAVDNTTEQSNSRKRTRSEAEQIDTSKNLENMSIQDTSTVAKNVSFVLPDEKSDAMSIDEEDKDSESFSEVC
Ycg1 (HAWK);Brn1 (kleisin), sequence (P38170 whole entry, chain 2 of 2): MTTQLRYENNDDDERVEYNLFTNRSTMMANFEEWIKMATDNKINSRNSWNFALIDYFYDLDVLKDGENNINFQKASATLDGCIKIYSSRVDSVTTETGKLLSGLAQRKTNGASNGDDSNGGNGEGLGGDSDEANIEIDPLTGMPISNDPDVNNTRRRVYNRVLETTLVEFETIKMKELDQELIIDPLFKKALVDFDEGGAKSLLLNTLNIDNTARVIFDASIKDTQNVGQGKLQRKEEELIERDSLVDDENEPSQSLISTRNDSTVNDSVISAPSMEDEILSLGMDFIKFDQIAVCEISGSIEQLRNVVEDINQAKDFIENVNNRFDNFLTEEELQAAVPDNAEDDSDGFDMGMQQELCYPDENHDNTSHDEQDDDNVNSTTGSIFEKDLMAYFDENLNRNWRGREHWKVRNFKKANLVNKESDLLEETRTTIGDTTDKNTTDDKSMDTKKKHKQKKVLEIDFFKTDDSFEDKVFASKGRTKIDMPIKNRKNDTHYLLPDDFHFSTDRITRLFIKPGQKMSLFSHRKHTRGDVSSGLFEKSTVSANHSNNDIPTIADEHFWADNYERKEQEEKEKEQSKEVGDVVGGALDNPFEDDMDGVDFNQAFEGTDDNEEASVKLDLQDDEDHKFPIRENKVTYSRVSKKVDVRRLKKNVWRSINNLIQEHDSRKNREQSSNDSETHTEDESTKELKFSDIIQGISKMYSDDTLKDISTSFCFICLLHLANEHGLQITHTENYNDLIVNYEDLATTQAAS

[3] = biological target: Smc2;Smc4;Brn1 (kleisin);Ycs4 (HAWK);Ycg1 (HAWK) (Saccharomyces cerevisiae;Saccharomyces …, UniProt P38989;Q12267;P38170;Q06156;Q06680 1-1170;1-1418;1-754;1-1176;1-1035, ||||); experiment: cryo-EM structure; condensin pentamer; ADP.BeF3, Mg2+; clamped head module map EMD-13785, Ycg1 not on head module; 30 mM Tris/HCl pH 7.5, 60 mM NaCl, 1 mM TCEP, 2 mM MgCl2, 5 mM ADP, 1 mM BeSO4, 10 mM NaF; 30 min at room temperature; 1-2 uM 80-bp DNA or 100 nM circular DNA; conditions: protein: recombinant;recombinant;recombinant;recombinant;recombinant; copies: 1;1;1;1;1; blunt

Measured: binding result

B1: 80-bp dsDNA (dsDNA)
DNA 1: GAATTCGGTGCGCATAATGTATAATAAGATAAATAAGCTTAAGTTCTTCCGATGCATAATAACATAATACGTGACTTTAC
DNA 2: GTAAAGTCACGTATTATGTTATTATGCATCGGAAGAACTTAAGCTTATTTATCTTATTATACATTATGCGCACCGAATTC
binds: all assays above
